According to patent US20220033520A1 (published 2022):

B1: anti-gD antibody comprising a hIgG1 with a YQAY (Q95, M252Y/T307Q/Q311A/N434Y) Fc modification (anti-gD-hIgG1-YQAY) (antibody)
Fc: PAPELLGGPSVFLFPPKPKDTLYISRTPEVTCVVVDVSHEDPEVKFNWYVDGVEVHNAKTKPREEQYNSTYRVVSVLQVLHADWLNGKEYKCKVSNKALPAPIEKTISKAKGQPREPQVYTLPPSRDELTKNQVSLTCLVKGFYPSDIAVEWESNGQPENNYKTTPPVLDSDGSFFLYSKLTVDKSRWQQGNVFSCSVMHEALHYHYTQKSLSLSPGK
B2: anti-BACE1 hIgG1 antibody, Fc modification Q95 (M252Y/T307Q/Q311A/N434Y) (antibody)
Fc: PAPELLGGPSVFLFPPKPKDTLYISRTPEVTCVVVDVSHEDPEVKFNWYVDGVEVHNAKTKPREEQYNSTYRVVSVLQVLHADWLNGKEYKCKVSNKALPAPIEKTISKAKGQPREPQVYTLPPSRDELTKNQVSLTCLVKGFYPSDIAVEWESNGQPENNYKTTPPVLDSDGSFFLYSKLTVDKSRWQQGNVFSCSVMHEALHYHYTQKSLSLSPGK

How the values were obtained:
[1] = target: T1, human FcRn complex (FCGRT and beta-2 microglobulin), recombinant, purified (human, UniProt P55899 24-297; P61769 21-119); test: -; pH6
[2] = target: T1, human FcRn complex (FCGRT and beta-2 …); test: -; pH6; remark: listed apart in the source
[3] = target: T1, human FcRn complex (FCGRT and beta-2 …); test: -; pH6; remark: listed apart in the source
[4] = target: T1, human FcRn complex (FCGRT and beta-2 …); test: ?; pH 6
[5] = target: T1, human FcRn complex (FCGRT and beta-2 …); test: ?; pH 6; remark: listed apart in the source
[6] = target: T1, human FcRn complex (FCGRT and beta-2 …); test: -; pH7.4
[7] = target: T1, human FcRn complex (FCGRT and beta-2 …); test: -; pH7.4; remark: listed apart in the source
[8] = target: T1, human FcRn complex (FCGRT and beta-2 …); test: -; pH7.4; remark: listed apart in the source
[9] = target: T1, human FcRn complex (FCGRT and beta-2 …); test: ?; pH 7.4
[10] = target: T1, human FcRn complex (FCGRT and beta-2 …); test: ?; pH 7.4; remark: listed apart in the source
[11] = target: T1, human FcRn complex (FCGRT and beta-2 …); test: -; pH6; remark: listed apart in the source
[12] = target: T1, human FcRn complex (FCGRT and beta-2 …); test: ?; pH 6; remark: listed apart in the source
[13] = target: T1, human FcRn complex (FCGRT and beta-2 …); test: -; pH7.4; remark: listed apart in the source
[14] = target: T1, human FcRn complex (FCGRT and beta-2 …); test: ?; pH 7.4; remark: listed apart in the source

T1 sequence (P55899 24-297, chain 1 of 2): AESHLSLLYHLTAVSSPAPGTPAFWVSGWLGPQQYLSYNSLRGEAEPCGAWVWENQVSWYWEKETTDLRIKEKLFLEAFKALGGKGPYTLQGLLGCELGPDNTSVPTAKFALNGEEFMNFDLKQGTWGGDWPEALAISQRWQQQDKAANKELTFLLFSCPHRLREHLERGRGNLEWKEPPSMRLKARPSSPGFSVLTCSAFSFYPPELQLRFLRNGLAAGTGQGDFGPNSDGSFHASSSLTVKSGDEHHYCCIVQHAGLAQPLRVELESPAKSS
T1 sequence (P61769 21-119, chain 2 of 2): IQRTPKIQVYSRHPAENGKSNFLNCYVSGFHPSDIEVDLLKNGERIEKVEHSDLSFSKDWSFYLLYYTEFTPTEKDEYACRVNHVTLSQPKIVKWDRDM

Binder	Kd [1] [nM]	Kd [2] [nM]	Kd [3] [nM]	Kd [4] [nM]	Kd [5] [nM]	Kd [6] [nM]	Kd [7] [nM]	Kd [8] [nM]	Kd [9] [nM]	Kd [10] [nM]	Kd [11] [nM]	Kd [12] [nM]	Kd [13] [nM]	Kd [14] [nM]
B1	2	2	2	2	2	333	333	333	333	333	–	–	–	–
B2	–	–	–	–	–	–	–	–	–	–	2	1.98	333	333
